Experiment [1] deals with T1, recombinant human FcγRIIIa (human, UniProt P08637 17-208).
T1 construct: Histidine-tagged recombinant receptor captured on anti-Penta-His biosensors; not shown: histidine tag
Nature of the experiment: Bio-layer interferometry (Octet QKe), His-tagged FcγRIIIa captured on anti-Penta-His biosensors; printed as Kdis; range 125-15.6 nM; fit R2 0.9895. On the technique in general: Biolayer interferometry detects binding as a change in optical thickness at a sensor tip.

The target in experiment [2] is T2, recombinant human FcγRIIIb (human, UniProt O75015 17-200).
T2 construct: Histidine-tagged recombinant receptor captured on anti-Penta-His biosensors; not shown: histidine tag
Description: Bio-layer interferometry (Octet QKe), His-tagged FcγRIIIb captured on anti-Penta-His biosensors; range 500-62.5 nM; fit R2 0.9723.

The target of experiment [3] is T3, recombinant human FcγRIIa (human, UniProt P12318 36-218, limits assumed).
T3 construct: Histidine-tagged recombinant receptor captured on anti-Penta-His biosensors; not shown: histidine tag
T3 sequence (looked up): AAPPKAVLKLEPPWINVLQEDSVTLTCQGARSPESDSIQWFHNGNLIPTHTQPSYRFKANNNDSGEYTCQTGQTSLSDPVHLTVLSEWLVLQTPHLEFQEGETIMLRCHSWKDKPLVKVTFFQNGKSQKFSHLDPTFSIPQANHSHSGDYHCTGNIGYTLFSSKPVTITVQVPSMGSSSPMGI
Description: Bio-layer interferometry (Octet QKe), His-tagged FcγRIIa captured on anti-Penta-His biosensors; printed as Kdis; range 500-62.5 nM; fit R2 0.9791.

The target in experiment [4] is T1, recombinant human FcγRIIIa. Description: Bio-layer interferometry (Octet QKe), His-tagged FcγRIIIa captured on anti-Penta-His biosensors; range 125-15.6 nM; fit R2 0.9895.
Description: (§1) Binding to recombinant human Fc receptors was measured by bio-layer interferometry using an Octet® QKe instrument. […] Curve fitting was performed using the instrument's analysis software. Binding to FcRn was performed with association and dissociation steps at pH 6.0 as well as pH 7.2.
The target of experiment [5] is T4, recombinant human FcγRI (human, UniProt P12314 16-288).
T4 construct: Histidine-tagged recombinant receptor captured on anti-Penta-His biosensors; also called FcgRI; not shown: histidine tag
Nature of the experiment: Bio-layer interferometry (Octet QKe), His-tagged FcγRI captured on anti-Penta-His biosensors; printed as Kdis; range 62.5-7.8 nM; fit R2 0.9955.

Experiment [6] deals with T5, recombinant human FcγRIIb (human, UniProt P31994 43-217, limits assumed).
T5 construct: Histidine-tagged recombinant receptor captured on anti-Penta-His biosensors; not shown: histidine tag
T5 sequence (looked up): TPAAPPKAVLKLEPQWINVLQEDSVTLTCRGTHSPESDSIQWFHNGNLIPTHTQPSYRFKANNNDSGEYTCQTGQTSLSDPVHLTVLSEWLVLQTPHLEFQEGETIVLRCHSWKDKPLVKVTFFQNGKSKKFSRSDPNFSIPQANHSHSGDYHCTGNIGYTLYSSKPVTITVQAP
Nature of the experiment: Bio-layer interferometry sensorgrams, FcγRIIb on the sensor, serial dilutions of antibody.

A further experiment addresses human KIT (human, UniProt P10721 26-976). Nature of the experiment: cell-based or functional assay.
The target of experiment [7] is T6, human neonatal Fc Receptor (FcRn) (human, UniProt P55899 24-297; P61769 21-119).
T6 construct: Histidine-tagged recombinant receptor captured on anti-Penta-His biosensors; not shown: histidine tag
Description: BLI (Octet QKe) at pH 6.0, His-tagged receptor on anti-Penta-His biosensors; pH 6.0 (to simulate endocytic conditions).

For experiment [8], the target named is T6, human neonatal Fc Receptor (FcRn). Description: Bio-layer interferometry (Octet QKe), His-tagged FcRn captured on anti-Penta-His biosensors, association and dissociation at pH 6.0; printed as Kdis; range 500-62.5 nM; fit R2 0.9757.
Description: as §1
(§2) Binding to the human neonatal Fc Receptor (FcRn) was tested at physiological pH 7.2 as well as at pH 6.0 to simulate endocytic conditions.
Experiment [9] deals with T3, recombinant human FcγRIIa. Description: Bio-layer interferometry (Octet QKe), His-tagged FcγRIIa captured on anti-Penta-His biosensors; range 500-62.5 nM; fit R2 0.9791.
Description: as §1
Experiment [10] deals with T4, recombinant human FcγRI. Description: Bio-layer interferometry (Octet QKe), His-tagged FcγRI captured on anti-Penta-His biosensors; range 62.5-7.8 nM; fit R2 0.9955.
Description: (§3) Binding to recombinant human Fc receptors was measured by bio-layer interferometry using an Octet® QKe instrument. […] Curve fitting was performed using the instrument's analysis software.
The target of experiment [11] is T2, recombinant human FcγRIIIb. Nature of the experiment: BLI (Octet QKe), His-tagged receptor on anti-Penta-His biosensors, antibody in solution.
Description: as §3
Experiment [12] has as its target T1, recombinant human FcγRIIIa. The description is as above.
Description: as §3
For experiment [13], the target named is T3, recombinant human FcγRIIa. The experiment is described as above.
Description: as §3
The target in experiment [14] is T4, recombinant human FcγRI. The description is as above.
Description: as §3
Experiment [15] addresses T6, human neonatal Fc Receptor (FcRn). Description: Bio-layer interferometry (Octet QKe), His-tagged FcRn captured on anti-Penta-His biosensors, association and dissociation at pH 6.0; range 500-62.5 nM; fit R2 0.9757.
Description: as §1
For experiment [16], the target named is T2, recombinant human FcγRIIIb. Nature of the experiment: Bio-layer interferometry (Octet QKe), His-tagged FcγRIIIb captured on anti-Penta-His biosensors; printed as Kdis; range 500-62.5 nM; fit R2 0.9723.
Description: as §1
Experiment [17] concerns the target T6, human neonatal Fc Receptor (FcRn). Description: BLI (Octet QKe) at pH 7.2, His-tagged receptor on anti-Penta-His biosensors.
Description: as §1, §2
Experiment [18] has the same target. Description: Bio-layer interferometry (Octet QKe), His-tagged FcRn captured on anti-Penta-His biosensors, association and dissociation at pH 6.0; range 31.25-1.9 nM; fit R2 0.9869.
Description: as §1, §2
The target is the same in experiment [19]. Description: BLI (Octet QKe) at pH 6.0, His-tagged receptor on anti-Penta-His biosensors.
Description: as §1, §2
The target of experiment [20] is T3, recombinant human FcγRIIa. Nature of the experiment: Bio-layer interferometry (Octet QKe), His-tagged FcγRIIa captured on anti-Penta-His biosensors.
Description: as §3
The target in experiment [21] is T2, recombinant human FcγRIIIb. Description: Bio-layer interferometry sensorgrams, FcγRIIIb on the sensor, serial dilutions of antibody.
Description: as §1
Experiment [22] deals with T6, human neonatal Fc Receptor (FcRn). Description: Bio-layer interferometry (Octet QKe), His-tagged FcRn captured on anti-Penta-His biosensors, association and dissociation at pH 7.2; range 500-15.6 nM; fit R2 0.9876.
Description: as §1
Experiment [23] deals with T1, recombinant human FcγRIIIa. Description: Bio-layer interferometry sensorgrams, FcγRIIIa on the sensor, serial dilutions of antibody.
Description: as §3
The target in experiment [24] is T5, recombinant human FcγRIIb. Description: Bio-layer interferometry sensorgrams, FcγRIIb on the sensor, serial dilutions of antibody. This is another data set of the same source.
Description: as §3
For experiment [25], the target named is T4, recombinant human FcγRI. Nature of the experiment: Bio-layer interferometry (Octet QKe), His-tagged FcγRI captured on anti-Penta-His biosensors.
Description: as §1
Experiment [26] deals with T6, human neonatal Fc Receptor (FcRn). Nature of the experiment: Bio-layer interferometry (Octet QKe), His-tagged FcRn captured on anti-Penta-His biosensors, association and dissociation at pH 6.0; printed as Kdis; range 31.25-1.9 nM; fit R2 0.9869.
Description: as §1
The target is the same in experiment [27]. Nature of the experiment: Bio-layer interferometry (Octet QKe), His-tagged FcRn captured on anti-Penta-His biosensors, association and dissociation at pH 7.2; printed as Kdis; range 500-15.6 nM; fit R2 0.9876.
Description: as §1, §2

Read-outs that look alike come from different tables or passages of the source.

Usually koff stands for a measure of how fast the partners let go of each other. By kon is commonly meant the rate constant with which the complex forms. As usually defined, the Kd is the concentration at which binding is half-saturated.

T4 sequence (P12314 16-288 limits assumed): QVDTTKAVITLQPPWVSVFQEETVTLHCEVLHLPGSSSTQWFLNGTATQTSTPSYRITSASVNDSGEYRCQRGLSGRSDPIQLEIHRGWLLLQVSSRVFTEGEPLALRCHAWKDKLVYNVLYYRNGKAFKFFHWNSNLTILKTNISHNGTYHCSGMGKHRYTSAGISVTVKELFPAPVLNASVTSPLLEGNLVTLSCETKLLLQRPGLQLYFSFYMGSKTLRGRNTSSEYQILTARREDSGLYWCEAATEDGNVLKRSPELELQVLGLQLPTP
T6 sequence (P55899 24-297 limits assumed, chain 1 of 2): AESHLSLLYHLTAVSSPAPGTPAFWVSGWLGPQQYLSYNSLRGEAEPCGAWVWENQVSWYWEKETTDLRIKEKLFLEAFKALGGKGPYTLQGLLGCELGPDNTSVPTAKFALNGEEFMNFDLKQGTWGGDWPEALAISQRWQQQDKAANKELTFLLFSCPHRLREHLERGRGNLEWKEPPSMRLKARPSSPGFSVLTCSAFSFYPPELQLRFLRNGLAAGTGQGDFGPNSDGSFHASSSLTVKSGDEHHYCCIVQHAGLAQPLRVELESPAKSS
T6 sequence (P61769 21-119 limits assumed, chain 2 of 2): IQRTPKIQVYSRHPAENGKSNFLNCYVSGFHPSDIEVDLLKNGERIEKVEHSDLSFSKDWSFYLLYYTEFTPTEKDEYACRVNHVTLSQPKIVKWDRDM
T2 sequence (O75015 17-200 limits assumed): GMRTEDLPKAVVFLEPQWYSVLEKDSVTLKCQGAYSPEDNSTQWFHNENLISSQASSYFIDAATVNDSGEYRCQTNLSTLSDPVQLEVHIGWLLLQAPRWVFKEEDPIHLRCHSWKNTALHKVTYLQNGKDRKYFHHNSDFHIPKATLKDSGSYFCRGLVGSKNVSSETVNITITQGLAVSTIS
T1 sequence (P08637 17-208 limits assumed): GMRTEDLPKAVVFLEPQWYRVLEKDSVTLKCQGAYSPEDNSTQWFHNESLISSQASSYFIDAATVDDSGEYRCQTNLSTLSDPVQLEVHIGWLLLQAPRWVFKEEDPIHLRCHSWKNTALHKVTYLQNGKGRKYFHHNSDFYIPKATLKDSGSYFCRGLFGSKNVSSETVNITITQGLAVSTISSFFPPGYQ
Sequence of human KIT (P10721 other isoform, or with tags, fused parts or gaps limits assumed): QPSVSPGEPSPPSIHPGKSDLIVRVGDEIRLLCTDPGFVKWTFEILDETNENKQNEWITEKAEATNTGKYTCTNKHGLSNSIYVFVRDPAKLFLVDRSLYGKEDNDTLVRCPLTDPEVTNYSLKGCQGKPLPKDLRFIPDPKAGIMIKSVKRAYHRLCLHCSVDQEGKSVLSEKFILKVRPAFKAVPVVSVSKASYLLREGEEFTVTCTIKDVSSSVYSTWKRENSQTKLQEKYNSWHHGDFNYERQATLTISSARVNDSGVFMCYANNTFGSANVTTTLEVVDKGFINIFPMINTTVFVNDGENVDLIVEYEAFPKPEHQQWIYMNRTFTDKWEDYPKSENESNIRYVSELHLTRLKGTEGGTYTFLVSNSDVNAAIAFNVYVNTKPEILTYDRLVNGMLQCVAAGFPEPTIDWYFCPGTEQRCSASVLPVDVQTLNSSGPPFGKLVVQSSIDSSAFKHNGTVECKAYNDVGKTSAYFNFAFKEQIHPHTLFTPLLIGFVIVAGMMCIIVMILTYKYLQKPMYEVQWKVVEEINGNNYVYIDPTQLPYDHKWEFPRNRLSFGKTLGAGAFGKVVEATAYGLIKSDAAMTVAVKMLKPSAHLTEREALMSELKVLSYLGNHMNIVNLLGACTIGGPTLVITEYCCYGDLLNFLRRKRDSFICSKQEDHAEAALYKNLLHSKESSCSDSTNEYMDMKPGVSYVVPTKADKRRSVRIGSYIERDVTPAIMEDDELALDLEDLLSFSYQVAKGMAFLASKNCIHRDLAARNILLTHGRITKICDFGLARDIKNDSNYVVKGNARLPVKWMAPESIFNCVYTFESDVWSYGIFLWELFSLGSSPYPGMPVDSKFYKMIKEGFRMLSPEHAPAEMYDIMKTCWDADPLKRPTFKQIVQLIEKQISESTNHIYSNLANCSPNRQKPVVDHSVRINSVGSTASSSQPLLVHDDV

B1: mAbc (antibody, human IgG1, kappa)
heavy: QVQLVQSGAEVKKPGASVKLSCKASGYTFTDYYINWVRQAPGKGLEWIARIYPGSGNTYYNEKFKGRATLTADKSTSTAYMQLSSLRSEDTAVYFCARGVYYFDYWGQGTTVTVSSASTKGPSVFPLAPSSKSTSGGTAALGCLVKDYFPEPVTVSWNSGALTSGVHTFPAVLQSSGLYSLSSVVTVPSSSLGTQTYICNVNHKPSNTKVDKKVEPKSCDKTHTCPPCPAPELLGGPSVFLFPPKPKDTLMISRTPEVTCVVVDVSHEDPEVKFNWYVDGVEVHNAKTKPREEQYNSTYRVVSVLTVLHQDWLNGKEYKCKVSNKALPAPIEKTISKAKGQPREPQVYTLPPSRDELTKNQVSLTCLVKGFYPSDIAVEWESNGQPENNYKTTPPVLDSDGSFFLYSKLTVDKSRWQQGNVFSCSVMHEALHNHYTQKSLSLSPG
light: DIVMTQSPSSLSASVGDRVTITCKASQNVRTNVAWYQQKPGKAPKALIYSASYRYSGVPDRFTGSGSGTDFTLTISSLQPEDFADYFCQQYNSYPRTFGGGTKVEIKRTVAAPSVFIFPPSDEQLKSGTASVVCLLNNFYPREAKVQWKVDNALQSGNSQESVTEQDSKDSTYSLSSTLTLSKADYEKHKVYACEVTHQGLSSPVTKSFNRGEC
notes: Positions are EU numbers; also called corresponding antibody with a wild-type (unmutated) IgG1 Fc domain; copies: 2 + 2
Take B1: the koff is 0.0162 s⁻¹ in experiment [1]; 0.14 s⁻¹ in experiment [3]; 0.00177 s⁻¹ in the experiment with recombinant human FcγRI [5]; 0.0296 s⁻¹ in [8]; 0.124 s⁻¹ in experiment [16]. Besides, the kon was 152000 M⁻¹ s⁻¹ in experiment [2]; 128000 M⁻¹ s⁻¹ in experiment [4]; 358000 M⁻¹ s⁻¹ in [9]; 522000 M⁻¹ s⁻¹ in the experiment with recombinant human FcγRI [10]; 141000 M⁻¹ s⁻¹ in experiment [15]. Besides, the binding result in experiment [6] is on record as “no binding (tested: 500 nM (range given in FIG. 7))”. Besides, the “IC50, inhibition of SCF-dependent M-07e cell proliferation” value with human KIT worked out at 0.00112 µM. Also, the equilibrium dissociation constant (Kd) was 0.211 µM in [7]; 0.816 µM in experiment [11]; 0.127 µM in experiment [12]; 0.391 µM in experiment [13]; 0.00339 µM with recombinant human FcγRI [14].

B2: mAb1 (antibody, human IgG1, kappa)
heavy: QVQLVQSGAEVKKPGASVKLSCKASGYTFTDYYINWVRQAPGKGLEWIARIYPGSGNTYYNEKFKGRATLTADKSTSTAYMQLSSLRSEDTAVYFCARGVYYFDYWGQGTTVTVSSASTKGPSVFPLAPSSKSTSGGTAALGCLVKDYFPEPVTVSWNSGALTSGVHTFPAVLQSSGLYSLSSVVTVPSSSLGTQTYICNVNHKPSNTKVDKKVEPKSCDKTHTCPPCPAPEAQGGPSVFLFPPKPKDTLYITREPEVTCVVVDVSHEDPEVKFNWYVDGVEVHNAKTKPREEQYNSTYRVVSVLTVLHQDWLNGKEYKCQVSNKALPAPIEKTISKAKGQPREPQVYTLPPSRDELTKNQVSLTCLVKGFYPSDIAVEWESNGQPENNYKTTPPVLDSDGSFFLYSKLTVDKSRWQQGNVFSCSVMHEALHNHYTQKSLSLSPG
light: DIVMTQSPSSLSASVGDRVTITCKASQNVRTNVAWYQQKPGKAPKALIYSASYRYSGVPDRFTGSGSGTDFTLTISSLQPEDFADYFCQQYNSYPRTFGGGTKVEIKRTVAAPSVFIFPPSDEQLKSGTASVVCLLNNFYPREAKVQWKVDNALQSGNSQESVTEQDSKDSTYSLSSTLTLSKADYEKHKVYACEVTHQGLSSPVTKSFNRGEC
notes: Humanized anti-human KIT IgG1 with mutated Fc, expressed in CHO cells; also called antibody mAb 1; anti-KIT antibody; copies: 2 + 2
Regarding B2, the Kd in [17] was 0.0771 µM; in [18], 0.000383 µM; in experiment [19], 0.00038 µM. Besides, the values for the on-rate constant (kon) in experiment [18] and in [22] were 2e+06 M⁻¹ s⁻¹ and 1.05e+06 M⁻¹ s⁻¹, respectively. Further, the binding result is on record as “no binding (tested: 500 nM)” in experiment [20]; “no binding (tested: 500 nM (range given in FIG. 7))” in experiment [21]; “no binding (tested: 500 nM (range given in FIG. 7))” in [23]; “no binding (tested: 500 nM (range given in FIG. 7))” in experiment [24]; “no binding (tested: 500 nM)” with recombinant human FcγRI [25]. The “IC50, inhibition of SCF-dependent M-07e cell proliferation” value with human KIT is 0.00111 µM. For the same molecule, the koff in experiment [26] is 0.000765 s⁻¹; in [27] it was 0.0807 s⁻¹.
